This note sets out measurements from patent EP4631974A1 (Nanjing Vazyme Biotech Co., Ltd., dated 2025).

In assay [1] the target is T1, RSV A2 pre-F protein (respiratory syncytial virus (RSV) A2, UniProt P03420 26-513).
T1 construct: House-made by Vazyme; also called RSV 2A pre-F protein
The experiment in a line: ELISA, plate-coated RSV A2 pre-F, anti-human IgG Fc-HRP detection (2-fold dilutions from 1 ug/mL).

The target in assay [2] is T1, RSV A2 pre-F protein. The experiment in a line: ELISA, plate-coated RSV A2 pre-F, anti-human IgG Fc-HRP detection. Background: In an ELISA, binding on a coated surface is turned into a signal by an enzyme label.

B1: F6-63 (antibody, V domains shown)
VH: QVQVVESGGGVVEPGGSLSLSCAASGFSFKMHAMHWVRQAPGKGLEWVAFIPYDGSSQYYADSVKGRFTIYRDNFKNTLYLQMNSLRVEDTSLYYCARGGEEGAWSWIGYNSYMDVWGRGTAVTVSS
VL: QSALTQPASVSGSPGQSITISCSGTSSDVGGYDYVCWYQKHPGESPRLIIYDVSRRPSGVSNRFSGSKSGNTASLTISGLQAEDEADYSCSSYTSSNTLIFGGGTKLTVLG
notes: Human IgG1 expressed in CHO cells; heavy = VH + IgG1 constant region, light = VL + CL
Usually EC50 stands for the concentration that produces a half-maximal response. Low readings indicate greater potency, high ones weaker potency. In assay [1], B1 showed a 50% effective concentration (EC50) of 0.016 µg/mL.

B2: F6-210 (antibody, V domains shown)
VH: QERLAQSGTEVKKPGASVKVSCRALGYTFSDYSIHWVRQAPRQGLEWMGKINTSGGTTTYAQKFQARVTLTSDTSTSTASMELSSLKIEDTAVYYCVAYERATTLAGAGASDIWGQGTLVTVSS
VL: DIVMTQSPLSLPVTPGEPASISCRSSQSLLHSDGYNYLDWYLQKPGQSPHLLIYLGSNRASGVPDRFSGSGSGTDFTLKITRVEPEDVGVYYCMQSLQTPFTFGPGTKVDVKR
notes: as for B1
In turn, B2 came in with an EC50 in assay [2] of 0.028 µg/mL.
